# Measurements from patent publication US20100311659A1.
# Legend:
# [1] = system: FVIII-4A2 (quadruple mutant combining the A2 mutations 409, 462, 507, 629)
# [2] = system: T1, wild-type FVIII (recombinant human factor VIII with deletion of the B domain)
# T1 sequence: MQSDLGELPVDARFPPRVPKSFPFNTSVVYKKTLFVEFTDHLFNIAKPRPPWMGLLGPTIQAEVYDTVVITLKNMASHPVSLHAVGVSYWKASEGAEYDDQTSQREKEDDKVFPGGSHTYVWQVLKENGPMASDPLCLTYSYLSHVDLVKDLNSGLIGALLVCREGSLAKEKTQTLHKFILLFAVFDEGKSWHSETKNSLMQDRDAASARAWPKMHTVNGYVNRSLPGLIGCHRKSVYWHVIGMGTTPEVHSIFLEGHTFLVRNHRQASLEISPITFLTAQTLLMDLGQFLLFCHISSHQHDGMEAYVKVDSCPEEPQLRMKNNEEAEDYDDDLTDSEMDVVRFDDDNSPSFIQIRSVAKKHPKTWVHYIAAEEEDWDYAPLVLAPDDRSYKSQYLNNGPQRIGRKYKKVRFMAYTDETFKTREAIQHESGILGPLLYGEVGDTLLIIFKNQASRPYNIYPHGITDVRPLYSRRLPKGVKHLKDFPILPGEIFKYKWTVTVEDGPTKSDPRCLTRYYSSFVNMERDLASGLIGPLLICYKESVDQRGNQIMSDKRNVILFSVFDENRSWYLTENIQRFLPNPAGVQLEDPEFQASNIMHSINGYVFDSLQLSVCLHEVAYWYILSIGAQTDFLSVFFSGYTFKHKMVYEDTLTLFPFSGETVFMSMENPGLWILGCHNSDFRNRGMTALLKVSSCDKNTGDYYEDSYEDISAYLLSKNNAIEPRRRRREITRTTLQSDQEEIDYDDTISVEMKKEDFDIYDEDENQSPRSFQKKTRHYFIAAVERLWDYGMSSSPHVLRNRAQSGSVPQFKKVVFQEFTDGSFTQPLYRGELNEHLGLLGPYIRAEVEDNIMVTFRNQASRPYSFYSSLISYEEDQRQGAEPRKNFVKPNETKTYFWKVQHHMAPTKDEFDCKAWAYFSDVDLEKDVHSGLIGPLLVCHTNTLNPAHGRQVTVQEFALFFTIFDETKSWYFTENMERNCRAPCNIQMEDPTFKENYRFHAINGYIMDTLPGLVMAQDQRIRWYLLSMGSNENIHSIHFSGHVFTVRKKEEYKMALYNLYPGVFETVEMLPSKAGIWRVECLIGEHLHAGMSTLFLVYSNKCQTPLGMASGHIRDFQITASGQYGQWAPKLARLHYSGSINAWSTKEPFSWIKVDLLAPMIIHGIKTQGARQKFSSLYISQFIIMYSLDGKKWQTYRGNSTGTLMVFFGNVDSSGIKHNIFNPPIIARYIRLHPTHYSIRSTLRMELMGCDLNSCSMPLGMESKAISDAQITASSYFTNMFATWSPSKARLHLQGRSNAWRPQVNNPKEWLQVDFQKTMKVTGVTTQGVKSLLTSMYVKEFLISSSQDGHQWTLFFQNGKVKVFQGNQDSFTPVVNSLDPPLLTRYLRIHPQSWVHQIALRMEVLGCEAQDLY
substance,measurement,setting,value
Thrombin,activation by thrombin (FXa generation over time),[1],FVIII-4A2 is identically recognized by thrombin as wild-type FVIII with a relative decrease of activity which might be caused by one of the four mutations
same,activation by thrombin (FXa generation over time),[2],FVIII-4A2 is identically recognized by thrombin as wild-type FVIII with a relative decrease of activity which might be caused by one of the four mutations
